Laboratory results as given in patent US20050048060A1 (VLAAMS INTERUNIVERSITAIR INSTITUUT, published 2005).

Target: T1, carcinoembryonic antigen (CEA) expressed on LS 174T cells (human, UniProt P06731 35-685)
T1 sequence (looked up): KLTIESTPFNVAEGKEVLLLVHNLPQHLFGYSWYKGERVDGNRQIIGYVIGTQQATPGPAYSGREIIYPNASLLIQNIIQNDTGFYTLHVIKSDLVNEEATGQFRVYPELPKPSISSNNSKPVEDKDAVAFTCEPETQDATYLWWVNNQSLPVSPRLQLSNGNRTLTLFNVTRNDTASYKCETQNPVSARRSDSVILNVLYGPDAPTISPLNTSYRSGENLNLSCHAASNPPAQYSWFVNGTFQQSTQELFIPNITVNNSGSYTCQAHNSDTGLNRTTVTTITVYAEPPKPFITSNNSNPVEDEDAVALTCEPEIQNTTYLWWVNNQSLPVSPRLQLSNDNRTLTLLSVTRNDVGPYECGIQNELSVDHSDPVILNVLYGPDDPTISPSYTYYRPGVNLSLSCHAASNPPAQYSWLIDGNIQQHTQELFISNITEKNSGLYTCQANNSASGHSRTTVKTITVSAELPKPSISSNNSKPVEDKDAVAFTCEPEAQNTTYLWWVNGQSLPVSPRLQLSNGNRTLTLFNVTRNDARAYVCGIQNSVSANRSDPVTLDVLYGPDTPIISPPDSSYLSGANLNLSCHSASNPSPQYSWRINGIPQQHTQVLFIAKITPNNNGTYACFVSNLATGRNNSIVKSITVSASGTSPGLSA
Test: cell-based or functional assay

B1: cAb-CEA5-βL conjugate (other)
chain: QVQLVESGGGSVQAGGSLRLSCAASGDTYGSYWMGWFRQAPGKEREGVAAINRGGGYTVYADSVKGRFTISRDTAKNTVYLQMNSLRPDDTADYYCAASGVLGGLHEDWFNYWGQGTQVTVSSAHHSEDPSSKAPKAPMGTPVSEKQLAEVVANTITPLMKAQSVPGMAVAVIYQGKPHYYTFGKADIAANKPVTPQTLFELGSISKTFTGVLGGDAIARGEISLDDAVTRYWPQLTGKQWQGIRMLDLATYTAGGLPLQVPDEVTDNASLLRFYQNWQPQWKPGTTRLYANASIGLFGALAVKPSGMPYEQAMTTRVLKPLKLDHTWINVPKAEEAHYAWGYRDGKAVRVSPGMLDAQAYGVKTNVQDMANWVMANMAPENVADASLKQGIALAQSRYWRIGSMYQGLGWEMLNWPVEANTVVEGSDSKVALAPLPVAEVNPPAPPVKASWVHKTGSTGGFGSYVAFIPEKQIGIVMLANTSYPNPARVEAAYHILEALQHHHHHH
concentration of 125I-labelled conjugate in LS 174T tumor xenografts against other tissues in nude mice: > 10 fold
